The target of assay [1] is human AMH of serum samples (human) (UniProt P03971). Description: VIDAS sandwich, detection AA011 conjugate 500 ng/ml, AMH 6.3 ng/ml.
Assay [2] shares this target. Put plainly: VIDAS sandwich, detection AA011 conjugate 500 ng/ml, AMH 2.1 ng/ml.
Assay [3] has the same target. Put plainly: VIDAS sandwich, detection AA011 conjugate 500 ng/ml, AMH 8.7 ng/ml.
The target is the same in assay [4]. Put plainly: VIDAS sandwich, detection AA011 conjugate 500 ng/ml, AMH 4 ng/ml.
The target is the same in assay [5]. Description: VIDAS sandwich, detection AA011 conjugate 500 ng/ml, AMH 0.275 ng/ml.
Assay [6] has the same target. Description: VIDAS sandwich, detection AA011 conjugate 500 ng/ml, AMH 0.055 ng/ml.
The target is the same in assay [7]. Put plainly: VIDAS sandwich, detection AA011 conjugate 500 ng/ml, AMH 0.11 ng/ml.
Assay [8] has the same target. Put plainly: VIDAS sandwich, detection AA011 conjugate 500 ng/ml, AMH 11 ng/ml.
The target is the same in assay [9]. Put plainly: VIDAS sandwich, detection AA011 conjugate 500 ng/ml, AMH 0.9 ng/ml.

Sequence of UniProt P03971 (P03971 25-560 limits assumed): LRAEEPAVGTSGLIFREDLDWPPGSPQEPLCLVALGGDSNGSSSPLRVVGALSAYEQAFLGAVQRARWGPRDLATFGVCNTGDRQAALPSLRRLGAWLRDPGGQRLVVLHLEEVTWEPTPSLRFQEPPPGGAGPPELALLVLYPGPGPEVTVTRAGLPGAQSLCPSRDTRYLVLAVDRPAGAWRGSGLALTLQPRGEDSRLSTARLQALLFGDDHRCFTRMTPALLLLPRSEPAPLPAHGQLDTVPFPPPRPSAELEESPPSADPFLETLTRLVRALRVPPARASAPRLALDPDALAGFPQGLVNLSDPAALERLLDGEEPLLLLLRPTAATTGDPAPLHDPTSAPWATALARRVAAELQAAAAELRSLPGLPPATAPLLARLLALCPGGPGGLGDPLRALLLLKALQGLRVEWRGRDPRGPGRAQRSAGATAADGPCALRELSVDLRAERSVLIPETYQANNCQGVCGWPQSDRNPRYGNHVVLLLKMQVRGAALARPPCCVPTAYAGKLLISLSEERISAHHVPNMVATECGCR

For “AA012 commercial anti-AMH antibody (AnshLabs)”, the S/N (VIDAS RFV/RFV0) in assay [1] was 87; in [2], 36; in assay [3], 107; in [4], 65; in assay [5] it was 5; in [6] it was 2. Moreover, the figures for the S/N (VIDAS RFV/RFV0) in [7], in assay [8] and in [9] were 3, 120 and 16, respectively. The VIDAS RFV Signal came out at 3920 RFV in assay [1]; 1600 RFV in assay [2]; 4810 RFV in assay [3]; 2940 RFV in assay [4]; 209 RFV in assay [5]; 81 RFV in assay [6]. Further, the results for the VIDAS RFV Signal in assay [7], in assay [8] and in assay [9] were 113 RFV, 5390 RFV and 735 RFV, respectively.

The values are drawn from US20190211096A1.
